Values quoted from earlier work in PMC3509699.
Like-named read-outs stand apart in the source and are kept apart here.

How the values were obtained:
[1] = target: KV1.3 (Homo sapiens) (UniProt P22001)
[2] = target: KCa3.1 (Homo sapiens) (UniProt O15554)
[3] = target: KCa3.1 (Homo sapiens) (UniProt O15554); remark: listed apart in the source
[4] = target: KV1.3 (Homo sapiens) (UniProt P22001); remark: listed apart in the source

UniProt P22001, sequence (P22001 whole entry): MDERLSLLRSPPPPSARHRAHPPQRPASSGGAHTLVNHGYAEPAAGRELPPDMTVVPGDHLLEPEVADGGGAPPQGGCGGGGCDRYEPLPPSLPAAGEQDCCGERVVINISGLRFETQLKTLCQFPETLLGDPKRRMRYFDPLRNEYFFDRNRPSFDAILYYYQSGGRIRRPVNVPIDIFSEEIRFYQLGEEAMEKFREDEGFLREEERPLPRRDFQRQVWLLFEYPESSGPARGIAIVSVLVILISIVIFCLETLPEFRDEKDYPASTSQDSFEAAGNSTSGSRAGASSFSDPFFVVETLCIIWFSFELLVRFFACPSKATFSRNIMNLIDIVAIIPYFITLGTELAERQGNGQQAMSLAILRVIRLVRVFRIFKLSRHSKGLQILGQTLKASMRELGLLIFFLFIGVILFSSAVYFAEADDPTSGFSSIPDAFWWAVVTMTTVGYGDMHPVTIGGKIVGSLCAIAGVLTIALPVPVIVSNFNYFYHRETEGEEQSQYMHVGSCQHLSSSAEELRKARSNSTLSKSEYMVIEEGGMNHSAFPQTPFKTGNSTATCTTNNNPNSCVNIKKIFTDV
UniProt O15554, sequence (O15554 whole entry): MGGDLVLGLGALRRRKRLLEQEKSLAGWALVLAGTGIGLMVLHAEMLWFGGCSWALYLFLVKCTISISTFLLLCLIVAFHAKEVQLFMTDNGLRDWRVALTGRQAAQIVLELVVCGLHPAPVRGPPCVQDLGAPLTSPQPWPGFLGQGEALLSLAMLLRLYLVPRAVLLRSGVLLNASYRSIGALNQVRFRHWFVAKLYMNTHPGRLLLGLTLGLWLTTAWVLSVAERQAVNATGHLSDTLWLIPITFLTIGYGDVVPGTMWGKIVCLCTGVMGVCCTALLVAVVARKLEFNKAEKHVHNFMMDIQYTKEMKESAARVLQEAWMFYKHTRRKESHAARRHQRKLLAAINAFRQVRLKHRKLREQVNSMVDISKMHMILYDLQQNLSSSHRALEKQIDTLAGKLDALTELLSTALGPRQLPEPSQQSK

## Margatoxin (from UniProt P40755)
[1]
  Kd: 0.11 nM

## Maurotoxin (MTX) (from UniProt P80719)
[2]
  Kd: 1 nM

## Charybdotoxin (ChTx) (from UniProt P13487)
[3]
  Kd: 5 nM

## BmKTX (from UniProt Q9NII7)
[4]
  Kd: 0.2 nM
